In publication PMC11021269, “HspBP1 in Complex with the Peptide of the Innate Immunity Protein Tag7 is Able to Lyse Tumor Cells Carrying TNFR1 Receptor” (Doklady. Biochemistry and Biophysics, 2024):

Tests used:
[1] = system: L929 cells (mouse fibroblasts) bearing the TNFR1 receptor; assay: Cytotoxicity on L929 cells (Cytotox kit, Promega); type: cell-based
Protocol: L929 cells (mouse fibroblasts) were cultured in DMEM medium (PanEco, RA) supplemented with 10% fetal bovine serum (HyClone, United States). The culture was obtained from the bank of cell lines of the Blokhin Russian Cancer Research Center of the Russian Academy of Medical Sciences. To measure cytotoxicity, proteins and protein complexes were added to the L929 culture at a concentration of 1 nM, unless a different concentration was specified, and incubated for 3 or 20 h. Cytotoxicity was measured using a Cytotox kit (Promega, United States) according to the manufacturer’s method. To inhibit cytotoxicity, blocking antibodies to TNFR1 were used at a concentration of 10 μg/mL (Invitrogen, United States). Data from 5 different experiments are used.

HspBP1 = target: T1, HspBP1 (Homo sapiens, UniProt Q9NZL4); assay: Microscale thermophoresis, binding to Alexa Fluor 633-labeled HspBP1; conditions: labeled HspBP1 200 nM, 20 min incubation, room temperature, 16 concentrations, triplicate; read-out: dissociation constant of the complex with HspBP1, thermophoresis
T1 construct: made in house
T1 sequence (Q9NZL4 1-359): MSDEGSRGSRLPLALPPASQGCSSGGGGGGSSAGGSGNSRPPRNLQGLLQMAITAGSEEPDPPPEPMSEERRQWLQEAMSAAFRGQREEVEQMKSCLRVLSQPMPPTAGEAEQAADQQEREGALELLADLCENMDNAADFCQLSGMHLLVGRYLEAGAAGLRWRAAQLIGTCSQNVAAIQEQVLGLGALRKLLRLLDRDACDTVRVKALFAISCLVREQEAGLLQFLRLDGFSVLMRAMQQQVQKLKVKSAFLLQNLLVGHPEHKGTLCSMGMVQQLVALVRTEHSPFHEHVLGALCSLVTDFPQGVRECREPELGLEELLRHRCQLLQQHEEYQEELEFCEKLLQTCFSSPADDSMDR
Protocol: Purified HspBP1 was fluorescently labeled using Alexa Fluor 633 (Eugene, OR, United States) according to the manufacturer’s instructions. HspBP1 (200 nM) was incubated for 20 min with each compound in the dark at room temperature at 16 different concentrations obtained by serial dilution starting with the highest soluble concentration. Samples were loaded into glass capillaries (Monolith NT Capillaries) and analyzed by thermophoresis using a Monolith NT 115 nanotemperature instrument (IR laser power 10%). The signal quality was monitored with a NanoTemper Monolith instrument to detect possible ligand autofluorescence, precipitation, aggregation, or ligand-induced changes in photobleaching rate. Experiments were performed in triplicate and processed using affinity analysis software (MO Control v.1.6.1, Nano-Temper).

Hsp70 = conditions: shown previously; read-out: dissociation constant for Hsp70; cited from earlier work
Protocol: For 17.1–HspBP1, equal to 3.91 nM is also close to these values. […] It can be assumed that the lack of cytotoxic activity inTag7–HspBP1 is associated with its dissociation upon interaction with cells. Thus, a correlation between the affinity of protei ...

## Tag7–HspBP1 complex: complex of the Tag7 protein with the HspBP1 protein
[1]
  cytotoxic activity (time not given): does not have cytotoxic activity
[1]; complexes at 1 nM, 3 h (apoptosis), 5 experiments
  cytotoxic activity after 3 h of incubation: did not have cytotoxic activity
[1]; complexes at 1 nM, 20 h (necroptosis), 5 experiments
  cytotoxic activity after 20 h of incubation: did not have cytotoxic activity

B1: HspBP1: recombinant co-chaperone that regulates the ATPase activity of Hsp70 (protein, UniProt Q9NZL4 1-359, looked up)
Hsp70-binding protein 1: MSDEGSRGSRLPLALPPASQGCSSGGGGGGSSAGGSGNSRPPRNLQGLLQMAITAGSEEPDPPPEPMSEERRQWLQEAMSAAFRGQREEVEQMKSCLRVLSQPMPPTAGEAEQAADQQEREGALELLADLCENMDNAADFCQLSGMHLLVGRYLEAGAAGLRWRAAQLIGTCSQNVAAIQEQVLGLGALRKLLRLLDRDACDTVRVKALFAISCLVREQEAGLLQFLRLDGFSVLMRAMQQQVQKLKVKSAFLLQNLLVGHPEHKGTLCSMGMVQQLVALVRTEHSPFHEHVLGALCSLVTDFPQGVRECREPELGLEELLRHRCQLLQQHEEYQEELEFCEKLLQTCFSSPADDSMDR
[1]; increasing concentration of HspBP1, Fig. 1a
  effect on the cytotoxic activity of the Tag7–Hsp70 complex: inhibits the cytotoxic activity of the Tag7–Hsp70 complex in a dose-dependent manner

B2: Tag7: innate immunity protein Tag7, a ligand for the TNFR1 receptor (protein, UniProt O75594 1-196, looked up)
chain: MSRRSMLLAWALPSLLRLGAAQETEDPACCSPIVPRNEWKALASECAQHLSLPLRYVVVSHTAGSSCNTPASCQQQARNVQHYHMKTLGWCDVGYNFLIGEDGLVYEGRGWNFTGAHSGHLWNPMSIGISFMGNYMDRVPTPQAIRAAQGLLACGVAQGALRSNYVLKGHRDVQRTLSPGNQLYHLIQNWPHYRSP
modifications: full-length
notes: innate immunity protein Tag7, a ligand for the TNFR1 receptor
HspBP1
  Kd: 328 nM
Hsp70
  Kd: 1.73 nM
